Measured values taken from publication PMC2190426.
Where two headings read alike, the source gives them in different places.

Legend:
[1] = target: cell-bound C3b on sheep erythrocytes (EAC4b,3b, called EC3b) (human) (UniProt P01024); assay: radioligand binding
[2] = target: cell-bound C3b on sheep erythrocytes (EAC4b,3b, called EC3b) (human) (UniProt P01024); assay: radioligand binding; remark: listed apart in the source

Sequence of UniProt P01024 (P01024 23-667, chain 1 of 2): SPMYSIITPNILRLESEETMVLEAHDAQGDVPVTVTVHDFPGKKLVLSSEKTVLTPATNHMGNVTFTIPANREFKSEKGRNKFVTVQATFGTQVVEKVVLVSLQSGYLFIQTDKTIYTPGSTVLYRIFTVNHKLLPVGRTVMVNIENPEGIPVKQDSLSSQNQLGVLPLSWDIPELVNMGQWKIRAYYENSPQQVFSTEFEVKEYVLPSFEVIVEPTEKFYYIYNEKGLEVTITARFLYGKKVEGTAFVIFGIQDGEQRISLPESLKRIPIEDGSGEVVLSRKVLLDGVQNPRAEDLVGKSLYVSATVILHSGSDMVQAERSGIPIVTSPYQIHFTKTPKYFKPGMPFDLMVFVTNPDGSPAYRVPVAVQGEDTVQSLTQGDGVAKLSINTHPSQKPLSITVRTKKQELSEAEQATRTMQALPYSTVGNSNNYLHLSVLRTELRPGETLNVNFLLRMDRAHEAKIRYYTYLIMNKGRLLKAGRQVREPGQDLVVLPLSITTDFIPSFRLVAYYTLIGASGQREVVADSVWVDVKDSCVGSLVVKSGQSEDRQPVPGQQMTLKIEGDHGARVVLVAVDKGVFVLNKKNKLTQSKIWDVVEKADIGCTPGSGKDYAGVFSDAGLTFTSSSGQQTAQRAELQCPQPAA
Sequence of UniProt P01024 (P01024 749-1663, chain 2 of 2): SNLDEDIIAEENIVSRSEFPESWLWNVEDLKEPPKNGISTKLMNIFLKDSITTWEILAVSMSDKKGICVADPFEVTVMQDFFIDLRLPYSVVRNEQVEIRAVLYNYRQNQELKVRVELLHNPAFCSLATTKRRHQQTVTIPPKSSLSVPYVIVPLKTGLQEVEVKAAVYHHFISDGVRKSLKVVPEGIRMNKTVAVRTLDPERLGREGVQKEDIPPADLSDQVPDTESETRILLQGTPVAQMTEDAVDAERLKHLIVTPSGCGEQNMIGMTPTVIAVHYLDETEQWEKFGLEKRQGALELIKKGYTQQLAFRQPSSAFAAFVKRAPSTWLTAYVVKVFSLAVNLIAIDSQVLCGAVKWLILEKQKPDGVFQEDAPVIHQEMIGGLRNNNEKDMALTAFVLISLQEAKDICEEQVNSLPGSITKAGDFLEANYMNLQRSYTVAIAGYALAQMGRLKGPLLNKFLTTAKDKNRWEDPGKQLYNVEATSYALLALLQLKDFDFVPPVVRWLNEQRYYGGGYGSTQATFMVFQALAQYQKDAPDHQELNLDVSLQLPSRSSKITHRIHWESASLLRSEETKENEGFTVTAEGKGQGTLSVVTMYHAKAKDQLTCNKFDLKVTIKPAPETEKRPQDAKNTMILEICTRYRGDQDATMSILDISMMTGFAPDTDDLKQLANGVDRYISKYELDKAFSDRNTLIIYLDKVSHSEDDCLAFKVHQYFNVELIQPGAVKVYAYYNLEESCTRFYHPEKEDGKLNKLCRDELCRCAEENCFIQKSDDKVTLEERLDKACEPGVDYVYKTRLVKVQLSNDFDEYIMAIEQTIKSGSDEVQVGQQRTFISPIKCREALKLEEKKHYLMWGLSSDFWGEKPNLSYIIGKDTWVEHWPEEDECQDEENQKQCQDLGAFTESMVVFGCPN

percent of input taken up [1]	stoichiometry N (molecules P per molecule C3b) [1]	uptake (cpm) [2]	uptake (cpm) [1]	Substance
< 1%	< 10			activated properdin (P) (from UniProt P27918 28-469) (natural protein)
		10700 cpm	378 cpm	precursor properdin (pre-P) (from UniProt P27918 28-469) (natural protein)
